Measurements reported in publication PMC9916714, “NMR Analysis Suggests Synergy between the RRM2 and the Carboxy-Terminal Segment of Human La Protein in the Recognition and Interaction with HCV IRES”.

Tests used:
Experiment in all cases: ITC; 50 mM KPi pH 7, 25 C; 50 mM KPi pH 7; ITC at 25 C (50 uM protein in cell, 500 uM RNA in syringe); NMR at 298 K, 0.1 mM protein, 90% H2O/10% D2O
Conditions in all cases: protein: recombinant; tags: IMAC tag (pET20b+; tag not specified)
La RRM2-Cter = biological target: T1, La RRM2-Cter (Homo sapiens, UniProt P05455 225-408)
T1 sequence: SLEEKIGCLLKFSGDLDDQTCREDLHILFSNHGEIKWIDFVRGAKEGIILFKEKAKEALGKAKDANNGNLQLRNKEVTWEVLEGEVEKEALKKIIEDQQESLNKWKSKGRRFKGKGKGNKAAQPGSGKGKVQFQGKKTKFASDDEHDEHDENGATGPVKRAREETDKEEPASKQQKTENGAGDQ

La RRM1-RRM2-Cter = biological target: T2, La RRM1-RRM2-Cter (Homo sapiens, UniProt P05455 105-408)
T2 sequence: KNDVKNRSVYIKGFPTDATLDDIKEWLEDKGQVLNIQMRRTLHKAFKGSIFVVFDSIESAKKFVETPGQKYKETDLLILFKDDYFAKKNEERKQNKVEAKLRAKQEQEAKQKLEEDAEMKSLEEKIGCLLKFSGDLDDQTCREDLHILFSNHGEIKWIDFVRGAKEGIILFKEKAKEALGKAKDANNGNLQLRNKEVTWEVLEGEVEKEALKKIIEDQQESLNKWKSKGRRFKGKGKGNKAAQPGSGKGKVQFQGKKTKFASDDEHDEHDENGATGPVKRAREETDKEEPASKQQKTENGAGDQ

La RRM2-SBM = biological target: T3, La RRM2-SBM (Homo sapiens, UniProt P05455 225-359)
T3 sequence: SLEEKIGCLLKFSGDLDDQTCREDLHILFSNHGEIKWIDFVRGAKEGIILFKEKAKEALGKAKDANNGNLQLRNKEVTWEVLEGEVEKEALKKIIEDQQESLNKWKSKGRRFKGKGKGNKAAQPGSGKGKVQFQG

La RRM1-RRM2-SBM = biological target: T4, La RRM1-RRM2-SBM (Homo sapiens, UniProt P05455 105-359)
T4 sequence: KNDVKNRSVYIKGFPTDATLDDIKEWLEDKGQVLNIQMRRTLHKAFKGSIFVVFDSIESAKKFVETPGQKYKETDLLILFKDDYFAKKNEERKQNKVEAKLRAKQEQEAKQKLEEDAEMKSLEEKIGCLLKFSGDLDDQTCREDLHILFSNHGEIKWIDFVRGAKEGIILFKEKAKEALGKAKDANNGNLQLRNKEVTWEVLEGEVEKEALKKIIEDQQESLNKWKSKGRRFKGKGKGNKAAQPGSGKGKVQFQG

B1: HCV-IRES domain IV (structured_RNA)
RNA: AGACCGUGCACCAUGAGCACGAAUCCA
B1 gave a Kd (La RRM2-Cter) of 15.3 ± 1.49 µM, a Kd (La RRM1-RRM2-Cter) of 9.76 ± 1.1 µM and a Kd (La RRM2-SBM) of 28.2 ± 1.21 µM. It also gave a Kd (La RRM1-RRM2-SBM) of 10.3 ± 2.04 µM.
